Results reported in patent US20230137139A1, “BIOSYNTHESIS OF CANNABINOIDS AND C[…]” (priority 2020, published 2023).
Numbering of substitutions follows the chain as printed.

B1: t865746 (protein)
chain: MGNTTSIAGRDCLISALGGNSALAVFPNELLWTADVHEYNLNLPVTPAAITYPETAAQIAGVVKCASDYDYKVQARSGGHSFGNYGLGGADGAVVVDMKHFTQFSMDDETYEAVIGPGTTLNDVDIELYNNGKRAMAHGVCPTIKTGGHFTIGGLGPTARQWGLALDHVEEVEVVLANSSIVRASNTQNQDVFFAVKGAAANFGIVTEFKVRTEPAPGLAVQYSYTFNLGSTAEKAQFVKDWQSFISAKNLTRQFYNNMVIFDGDIILEGLFFGSKEQYDALGLEDHFAPKNPGNILVLTDWLGMVGHALEDTILKLVGNTPTWFYAKSLGFRQDTLIPSAGIDEFFEYIANHTAGTPAWFVTLSLEGGAINDVAEDATAYAHRDALFWVQLFMVNPVGPISDTTYEFTDGLYDVLARAVPESVGHAYLGCPDPRMEDAQQKYWRTNLPRLQELKEELDPKNTFHHPQGVMPA
modifications: expressed in S. cerevisiae strain
B2: t865694 (protein)
chain: B1 chain with A57E, I126A, A386V
B3: t865726 (protein)
chain: B1 chain with T33D, N257S, A386V
B4: t878465 (protein)
chain: B1 chain with N202S, A386V, P472A
modifications: expressed in S. cerevisiae strain
B5: t865744 (protein)
chain: B1 chain with V260F, A386V
B6: t865717 (protein)
chain: B1 chain with E112V, N122S, A386V
B7: t865720 (protein)
chain: B1 chain with N122G, I126K, A386V
B8: t865723 (protein)
chain: B1 chain with Y129W, A386V
B9: t865741 (protein)
chain: B1 chain with Y256M, A386V
B10: t865751 (protein)
chain: B1 chain with A386V, S423A
modifications: expressed in S. cerevisiae strain

Test system: CBCA, THCA, and CBDA production
Experiment: In vivo TS activity assay, Example 2 protein engineering of A. niger CBCAS, cultures fed olivetolic acid
Type: cell-based, S. cerevisiae
Conditions: secondary screen
How it was run: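 S. cerevisiae expressing A. niger CBCAS mutants (MFalpha2/HDEL-tagged) grown 2 days at 30 °C in YEP+4% dextrose, then 4 days at 20 °C in YEP+4% galactose with 1 mM olivetolic acid, spiked every 24 h with 2% galactose and 1 mM olivetolic acid. 100 mM citrate pH 5.5 added, methanol-extracted; CBCA, THCA, CBDA quantified by LC-MS.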

How did the “average CBCA titer compared with the A. niger positive control” value turn out when B1 was run?
Its value is “higher”.

With B2 as the molecule, how does the “average CBCA titer compared with the A. niger positive control” value read?
The value was “higher”.

With B3 as the molecule, how does the “average CBCA titer compared with the A. niger positive control” value read?
The value was “higher”.

With B4 as the molecule, how does the “average CBCA titer compared with the A. niger positive control” value read?
Its value is “higher”.

With B5 as the molecule, how does the “average CBCA titer compared with the A. niger positive control” value read?
The value was “higher”.

B6 was tested. Which “average CBCA titer compared with the A. niger positive control” value did it give?
The value was “higher”.

Same assay, conditions: secondary screen, olivetolic acid (Table 8)

How did the “Mean CBCA” value turn out when B1 was run?
The value was 49195.03 µg/L.

And the “Mean CBDA” value?
The value was 9456.09 µg/L.

And the “Mean THCA” value?
Its value is 2882.16 µg/L.

Which “Mean CBCA” value does the source give for B7 here?
The value was 27895.13 µg/L.

And the “Mean CBDA” value?
Its value is 7663.58 µg/L.

And the “Mean THCA” value?
Its value is 1543.57 µg/L.

With B2 as the molecule, how does the “Mean CBCA” value read?
Its value is 43506.37 µg/L.

What about the “Mean CBDA” value of the same molecule?
Its value is 9126.46 µg/L.

What about the “Mean THCA” value of the same molecule?
The value was 2579.57 µg/L.

Which “Mean CBCA” value does the source give for B8 here?
The value was 22893.08 µg/L.

What about the “Mean CBDA” value of the same molecule?
Its value is 7334.92 µg/L.

And the “Mean THCA” value?
The value was 1788.74 µg/L.

For B9, which “Mean CBCA” value is on record?
The value was 15982.40 µg/L.

And the “Mean CBDA” value?
Its value is 4419.64 µg/L.

What about the “Mean THCA” value of the same molecule?
Its value is 957.33 µg/L.

With B3 as the molecule, how does the “Mean CBCA” value read?
The value was 41981.73 µg/L.

And the “Mean CBDA” value?
The value was 9985.90 µg/L.

What about the “Mean THCA” value of the same molecule?
Its value is 2186.01 µg/L.

What does the source list for B10?
Mean CBCA: 31396.25 µg/L; Mean CBDA: 8775.99 µg/L; Mean THCA: 1709.83 µg/L

How did the “Mean CBCA” value turn out when B4 was run?
The value was 41094.07 µg/L.

What about the “Mean CBDA” value of the same molecule?
Its value is 9826.17 µg/L.

What about the “Mean THCA” value of the same molecule?
The value was 2184.77 µg/L.

How did the “Mean CBCA” value turn out when B5 was run?
The value was 44305.26 µg/L.

What about the “Mean CBDA” value of the same molecule?
Its value is 7187.94 µg/L.

What about the “Mean THCA” value of the same molecule?
Its value is 2369.76 µg/L.

Which “Mean CBCA” value does the source give for B6 here?
The value was 44204.43 µg/L.

And the “Mean CBDA” value?
The value was 9698.33 µg/L.

What about the “Mean THCA” value of the same molecule?
Its value is 2648.36 µg/L.

Same assay, conditions: share of terminal cannabinoid product profile

What does the source list for B1?
% CBCA: 79.95%; % CBDA: 15.37%; % THCA: 4.68%

B7 was tested. Which “% CBCA” value did it give?
The value was 75.18%.

And the “% CBDA” value?
The value was 20.66%.

What about the “% THCA” value of the same molecule?
Its value is 4.16%.

What does the source list for B2?
% CBCA: 78.80%; % CBDA: 16.53%; % THCA: 4.67%

B8 was tested. Which “% CBCA” value did it give?
Its value is 71.50%.

And the “% CBDA” value?
Its value is 22.91%.

What about the “% THCA” value of the same molecule?
Its value is 5.59%.

Which results are given for B9?
% CBCA: 74.83%; % CBDA: 20.69%; % THCA: 4.48%

For B3, which “% CBCA” value is on record?
The value was 77.52%.

And the “% CBDA” value?
The value was 18.44%.

What about the “% THCA” value of the same molecule?
The value was 4.04%.

B10 was tested. Which “% CBCA” value did it give?
The value was 74.96%.

And the “% CBDA” value?
Its value is 20.95%.

What about the “% THCA” value of the same molecule?
Its value is 4.08%.

What does the source list for B4?
% CBCA: 77.38%; % CBDA: 18.50%; % THCA: 4.11%

B5 was tested. Which “% CBCA” value did it give?
Its value is 82.26%.

What about the “% CBDA” value of the same molecule?
The value was 13.34%.

And the “% THCA” value?
The value was 4.40%.

What does the source list for B6?
% CBCA: 78.17%; % CBDA: 17.15%; % THCA: 4.68%

Test system: CBCVA, THCVA, and CBDVA production
Experiment: In vivo TS activity assay, Example 2 protein engineering of A. niger CBCAS, cultures fed divaric acid
Type: cell-based, S. cerevisiae
Conditions: S. cerevisiae strains expressing A. niger CBCAS mutants, secondary screen, fed divaric acid
How it was run: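 S. cerevisiae expressing A. niger CBCAS point mutants (N-terminal MFalpha2, C-terminal HDEL signal peptides) grown 2 days at 30 °C in YEP+4% dextrose, then 4 days at 20 °C in YEP+4% galactose with 1 mM divaric acid plus daily 2% galactose and 1 mM divaric acid spikes, then 2 days with 100 mM sodium citrate pH 5.5. Methanol extracts analysed by LC-MS; quadruplicate.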

How did the “Mean CBCVA” value turn out when B1 was run?
The value was 4751.98 µg/L.

And the “Mean CBDVA” value?
Its value is 0.00 µg/L.

And the “Mean THCVA” value?
The value was 2061.14 µg/L.

Which “Mean CBCVA” value does the source give for B7 here?
Its value is 4276.65 µg/L.

What about the “Mean CBDVA” value of the same molecule?
The value was 0.00 µg/L.

And the “Mean THCVA” value?
The value was 2090.51 µg/L.

What does the source list for B2?
Mean CBCVA: 3069.69 µg/L; Mean CBDVA: 0.00 µg/L; Mean THCVA: 1647.98 µg/L

For B8, which “Mean CBCVA” value is on record?
Its value is 4223.36 µg/L.

What about the “Mean CBDVA” value of the same molecule?
Its value is 0.00 µg/L.

And the “Mean THCVA” value?
Its value is 2125.21 µg/L.

How did the “Mean CBCVA” value turn out when B9 was run?
Its value is 4388.54 µg/L.

What about the “Mean CBDVA” value of the same molecule?
The value was 0.00 µg/L.

What about the “Mean THCVA” value of the same molecule?
The value was 2033.77 µg/L.

With B3 as the molecule, how does the “Mean CBCVA” value read?
The value was 3644.48 µg/L.

What about the “Mean CBDVA” value of the same molecule?
Its value is 0.00 µg/L.

What about the “Mean THCVA” value of the same molecule?
The value was 1740.51 µg/L.

B10 was tested. Which “Mean CBCVA” value did it give?
Its value is 3998.68 µg/L.

And the “Mean CBDVA” value?
The value was 0.00 µg/L.

What about the “Mean THCVA” value of the same molecule?
Its value is 1894.39 µg/L.

How did the “Mean CBCVA” value turn out when B4 was run?
The value was 4314.23 µg/L.

And the “Mean CBDVA” value?
Its value is 0.00 µg/L.

And the “Mean THCVA” value?
The value was 2144.09 µg/L.

Which “Mean CBCVA” value does the source give for B5 here?
The value was 3752.20 µg/L.

What about the “Mean CBDVA” value of the same molecule?
Its value is 0.00 µg/L.

What about the “Mean THCVA” value of the same molecule?
The value was 2162.61 µg/L.

Which results are given for B6?
Mean CBCVA: 3668.51 µg/L; Mean CBDVA: 0.00 µg/L; Mean THCVA: 1721.38 µg/L

Same assay, conditions: secondary screen

With B1 as the molecule, how does the “average CBCVA titer compared with the A. niger positive control” value read?
The value was “higher”.

For B7, which “average CBCVA titer compared with the A. niger positive control” value is on record?
The value was “higher”.

Which “average CBCVA titer compared with the A. niger positive control” value does the source give for B8 here?
The value was “higher”.

How did the “average CBCVA titer compared with the A. niger positive control” value turn out when B9 was run?
Its value is “higher”.

For B3, which “average CBCVA titer compared with the A. niger positive control” value is on record?
The value was “higher”.

B10 was tested. Which “average CBCVA titer compared with the A. niger positive control” value did it give?
The value was “higher”.

With B4 as the molecule, how does the “average CBCVA titer compared with the A. niger positive control” value read?
Its value is “higher”.

With B5 as the molecule, how does the “average CBCVA titer compared with the A. niger positive control” value read?
The value was “higher”.

Which “average CBCVA titer compared with the A. niger positive control” value does the source give for B6 here?
The value was “higher”.

Same assay, conditions: share of terminal cannabinoid product profile, fed divaric acid

For B1, which “% CBCVA” value is on record?
The value was 69.75%.

What about the “% CBDVA” value of the same molecule?
Its value is 0.00%.

And the “% THCVA” value?
The value was 30.25%.

For B7, which “% CBCVA” value is on record?
The value was 67.17%.

And the “% CBDVA” value?
Its value is 0.00%.

And the “% THCVA” value?
Its value is 32.83%.

Which results are given for B2?
% CBCVA: 65.07%; % CBDVA: 0.00%; % THCVA: 34.93%

Which “% CBCVA” value does the source give for B8 here?
The value was 66.52%.

And the “% CBDVA” value?
Its value is 0.00%.

And the “% THCVA” value?
Its value is 33.48%.

What does the source list for B9?
% CBCVA: 68.33%; % CBDVA: 0.00%; % THCVA: 31.67%

Which “% CBCVA” value does the source give for B3 here?
Its value is 67.68%.

What about the “% CBDVA” value of the same molecule?
The value was 0.00%.

What about the “% THCVA” value of the same molecule?
The value was 32.32%.

What does the source list for B10?
% CBCVA: 67.85%; % CBDVA: 0.00%; % THCVA: 32.15%

With B4 as the molecule, how does the “% CBCVA” value read?
The value was 66.80%.

And the “% CBDVA” value?
The value was 0.00%.

What about the “% THCVA” value of the same molecule?
Its value is 33.20%.

Which results are given for B5?
% CBCVA: 63.44%; % CBDVA: 0.00%; % THCVA: 36.56%

How did the “% CBCVA” value turn out when B6 was run?
The value was 68.06%.

What about the “% CBDVA” value of the same molecule?
Its value is 0.00%.

And the “% THCVA” value?
The value was 31.94%.
